Assay results taken from patent publication US20050048634.

Target: oligo-nucleosomes purified from HeLa cells or chicken blood cells

| Protein | HMTase activity in the presence of increasing concentrations (1.5, 15, 150 uM) of the competitor peptide C-RS10 (SEQ ID NO:20) |
| --- | --- |
| hDOT1L(1-416) Δ(376-390) (protein) MGEKLELRLKSPVGAEPAVYPWPLPVYDKHHDAAHEIIETIRWVCEEIPDLKLAMENYVLIDYDTKSFESMQRLCDKYNRAIDSIHQLWKGTTQPMKLNTRPSTGLLRHILQQVYNHSVTDPEKLNNYEPFSPEVYGETSFDLVAQMIDEIKMTDDDLFVDLGSGVGQVVLQVAAATNCKHHYGVEKADIPAKYAETMDREFRKWMKWYGKKHAEYTLERGDFLSEEWRERIANTSVIFVNNFAFGPEVDHQLKERFANMKEGGRIVSSKPFAPLNFRINSRNLSDIGTIMRVVELSPLKGSVSWTGKPVSYYLHTIDRTILENYFSSLKNPKLREEQEAARRRQQRESKSNAATPTKGPEGKVAGPADAPMDSGPSKARKKKLNKKGRKMAGRKRGRPKK | effectively competed with increasing concentrations of the peptide |
| hDOT1L(1-416) (protein) MGEKLELRLKSPVGAEPAVYPWPLPVYDKHHDAAHEIIETIRWVCEEIPDLKLAMENYVLIDYDTKSFESMQRLCDKYNRAIDSIHQLWKGTTQPMKLNTRPSTGLLRHILQQVYNHSVTDPEKLNNYEPFSPEVYGETSFDLVAQMIDEIKMTDDDLFVDLGSGVGQVVLQVAAATNCKHHYGVEKADIPAKYAETMDREFRKWMKWYGKKHAEYTLERGDFLSEEWRERIANTSVIFVNNFAFGPEVDHQLKERFANMKEGGRIVSSKPFAPLNFRINSRNLSDIGTIMRVVELSPLKGSVSWTGKPVSYYLHTIDRTILENYFSSLKNPKLREEQEAARRRQQRESKSNAATPTKGPEGKVAGPADAPMDSGAEEEKAGAATVKKPSPSKARKKKLNKKGRKMAGRKRGRPKK | effectively competed with increasing concentrations of the peptide |
